Measurements taken from a protein production outcome set (Wang et al. 2014).

Assay: label from the status in PepcDB records

| Sequence | protein production |
| --- | --- |
| MPNSRPRPRRGAGGGAGAAGRDRLVARSLQSAEHCLGDQDFGTAYAHYLLVLSLAPELKDDVKETFQYTLFKWAEELHALSRIQDLLGCYEQALELFPDDEVICNSMGEHLFRMGFRDEAAGYFHKAVKLNPDFNDAKENFYRVANWLVERWHFIMLNDTRRNMVYNAAIQKAVCLGSRTVLDIGTGTGILSMFAKKAGAQSVYACELSKTMYELACDVVAANKMENGIKLLHMKSLDIEIPKHIPERVSLVVTETVDAGVFGEGIVESLIHAWEHLLLQPKTKEENGNCGKYGKVIPAGAVIFGMAVECAEIRRHHRVGAKDIAGIHLPTNVKFQSPAYTSVDTEETVEPYTTEKMSGIPGGYLPLTECFQIMKVDFNNLQELKSLATKKPHSLNVPAIKEGVLDAIMVWFVLQLDDEYSLSTSPSEETCWEQAVYPVQALEDYCIQPGDRVTMEASCHDCYLRIQGISILHLEHEMEVMKGFTKSKDLLSLGNEAELCSALANLQTSRPEALEQTCMLEPTEIALLNNIPYHEGFKTAMRKVLSSLAPELLWQPMDTHCQYMEMNSGSGQSDAAPSTADPFYVLDVSEGFSLLPILAGTLGHVKPYSSVEKDQHCIALDLIAEANHFPKETLEFWLRHIEDEAAVLQRPKSDKLWSIIILDVIEPSGLIQQELMEKAAISRCLLQSGGKIFPQYVLMFGMLVESQTLVEESAVQGTEHTLGLNIAPFINQFQVPIRVCLDLSSLPCVPLSQPVELLRLDLMTPYLNTSNKEVKVRVCRSGRVTAVPFWFHLCLDDEVRLDTSGEASHWKQAAVVLDNPIQVQAGEELVLSVEHHKSNVSIAVKP | failed |
| MDRTLTHQPQEYAVSVSVGEVKLKGNLVIPNGATGIVLFAHGSGSSRYSPRNRYVAEVLQQAGLATLLIDLLTQEEEEIDLRTRHLRFDIGLLASRLVGATDWLTHNPDTQHLKVGYFGASTGGGAALVAAAERPETVQAVVSRGGRPDLAPSALPHVKAPTLLIVGGYDLPVIAMNEDALEQLQTSKRLVIIPRASHLFEEPGALTAVAQLASEWFMHYLR | not failed |
| MNEQPNNENITQSASRDLQIIEDDAFSYEGYQVVRGEFFAHTYEPSFTFNANKVSVNTACIKKLPQTDFVQILVNPDEKKLAVRPCQEDEKDSFRWCSATKKRSPRQITCRIFFAKVISLMEWNPSYRYKLLGKLIRSDNELLFVFDLTTPEIYVRAEKEDGKIKTSRTPTYPAEWQNQFGVPVEEHQSNLQINMFDGYAVFGILEHHHHHH | not failed |
| LFQIVEQSFGRPLSPYEIETLNQWIDVDHHDLSVIQAALDEALSQNKLSFKYIDRILLNWKKNNVKTVDDSKK | not failed |
| GMINAHNHLPMIAFRGLGEEGISNRLFAYFFPLEAQKLSRELIYNATKLGAIDLAQSGVTTYADMYYHMDEMAKATKEVGLRAVLGETVIKFPVVDAKQPYGGIQYAKPFIEEYQNDPLITPAYAPHAVYTVSKEKLQEINQLSEDYDVPVLIHVAEFPNEEARIKDPTKATSPVEYLEEIGVLDERMVIAHGIHLSQHDQALLKQADAGVVYNPMANVKGATGIAPAWDMFRADMRVGLGTDGPMSSNQVDLWRTLSYAANMQRLKHSDRTIMIPEQVIEMATIGGAKALHMEDE | failed |
| NAQARFSQNLLDQGSHPTSEKLLSVLRPASGHVADALGITEGENVIHLRTLRRVNGVALCLIDHYFADLTLWPTLQRFDSGSLHDFLREQTGIALRRSQTRISARRAQAKECQRLEIPNMSPLLCVRTLNHRDGESSPAEYSVSLTRADMIEFTMEH | not failed |
| MLPVQILKDNAQEERGESARLSSFVGAIAIGDLVKSTLGPKGMDKILISGNPESAGGIKVTNDGATILKSIGVDNPAAKVLVDMSMTQDHEVGDGTTSVTVLAAELLKEAEKLVNQRIHPQTIISGYRRALGIAQESLKKSSIESGDNIRDDLLKIARTTLGSKILSQHKEHFAQLAVDAVLRLKGSGNLDAIQIIKKLGGSMNESYLDEGFLLEKLPGMFQPRRVEKAKILIANTPMDTDKVKVFGSRVRVDGVAKVAELEAAEKLKMKEKVDKILAHNCNVFINRQLIYNYPEQLFADAKVMAIEHADFEGIERLALVLGGEIVSTFDSPQTAQFGSCDLIEEIMIGEDRLLRFSGVKLGEACSVVLRGATQQILDESERSLHDALCVLVTHVKESKTVAGAGASEILMSSAIAVEAQKVAGKEALAVEAFGRALAQLPTIICDNAGLDSAELVTRLRAEHANGRHNMGIDIEKGEVADVTKLGVIESYNVKLCMVSSAAEATEQILRVDDIIKAAPRARAQDNRPC | not failed |
| MITIRNKIGQMLIMGFHGSELHDNSPVAQWLSNDGLGGVLLFDKDLSTGIYGKNLRNQAQIKQLIRQLNRYASMISGGNDNLPLFTAIDYEGGVVDRLSKIEGCPPTMKARELAKLSSDDFDEEVTQMAMTLQSLGFNLNFAPVVDLNLNAHAGIIGNLGRSFSSNPEVTIRLAKQFVDVFSRYGIACAYKHFPGHGSATGDTHEGFVDVTETFQTDELIPYRSLLKDLSNPFMVMTAHVINKHLDSKGLPATLSYDVLTLLLRQSIGYDGVIISDDLQMHAISNHYSLEDALCLTINAGADMVIFANQLGTITPPEVIDVIEKLVIDKQIPYQRIDEAYRRIVRLKQQIICSELINT | failed |
| MNLEHHSNHYQPTCSIEALQARAKLYQTIRTFFAERGVLEVETPIISQAGVTDVHLASVKALRHIEGKERTQYLQTSPEFAMKRLLASGSGPIYQLCKVFRDDEHGRKHNSEFTMLEWYRPEFDLKDLMHETADLLETCLKQRFDEIRPMILSYKHAFQDRLEINPLQATLKQLKDTADRVGLNLDLGNDRLAYIDLLFSHIVEPSLGFDTPVFLTDFPPEMASLAKVRIDEDGEEVAARFEVYIEGLELANAYDELLDANILRARFEADNLERKLQGLAEMPLDENLLAALPHMPACAGIALGVDRLLMIATRQLKIEQVIAFPAAIA | failed |
| MTGFASLPVEFLITVFAMSFSIGFVAIIAGTGGGVLFTSCLWDLHQYIRTNKSNRTSFGDCWAIGPTINLIMLAPLKIATTTSAVVISIGDTAAIFPYFMSGSLLPIFAVPAVAGLMTGARFGSAVAVRVKAKYIRYTLTTILLFAGIKLIWVGLWMLEG | failed |
| MTGQVLDGRYRLVERLGSGGMGEVWRGHDERLGRTVAIKLIHPGASVDDEAVALFRREAQVTARLAGHPNIVILYDYGTDGDTVYTVMELVTGCSLSALLRERGRLPVELAVRWGAHVCAGLAAAHAVGVVHRDIKPSNLMVVDADAPDGGTVKLVDFGIAGFHEAALHQRTLPPTGEPFGTPLYVSPEQIQMLPVGAFSDLYSFGAVLFHMLTGQPPFHAAEPMPVLRMHLTEPPPNPAELRPDVPAELAELVLMLLAKDPGQRPDNALWVRDRLLSLSGTSPPASAASPTESASREAQMRRLEQSWVEAERLAAAGQAAAAAQRIGALLGELAAIYGADHPATLEARRRHASLTSRAGDPERAAALFDTLVADLDRIYGHAHPETYAARHHLAAATEQAGRRAEAAVLRSELVDALTAQYGPQAARLLHPRLFYAVDLAEAGDFTGAEKLLRDLAAALEQQLGAHTPALQIVHHYLDAAAAFASETAGAEPPHPNRFRESTRLDGRPPPHPLRQRLTRWLRSTTEL | failed |
| MDVEPGKFYKGVVTRIEKYGAFINLNEQVRGLLRPRDMISLRLENLNVGDEIIVQAIDVRPEKREIDFKYIPLTTYDLVKYEKEVPLSQIKDISQNLEHHHHHH | not failed |
| MQENPSSSPFERRMESYQTQDSNDLHQLWRPREEDLEKLYRVPLGLTNEQLVEKLQLFSGEGEEKTLFVWVNRDLLGYRFLFWLTGMVLKEKQDGDVEHANKLEIIRDWVIESVVKIDRFLVRRVKQAEEKLKSLIQDYDSFKTSPEKKLLQITGQSEMDFVCLWVVVYTAVIAWKLRAAQTESSATHPSSIVVSECRHLLEQKDVFQRKTPKGLKLVAQLFDRSIEELNPRLKTLGDTDIREIGRLMTILELLPADPYRLLCRIACNLYDGAILLQYGVENYQIGSVRFGLDPYSFDSESKIPKLNNPFITIGK | failed |
| MTSFVGTRGRGNCGTAPGRSPSLQAHGKMGRRREPGVPEESCCSHDACCEKAAKPRVEEVATSGCADCCSAGVPVFDGLDPRYKRILWTVIAINAAMFVSEMVAGHLAGSQALKADALDFLADTVTYGLSLSVIGASLKTRATAALFKGVSLSAMAAWVFGSTVYQTLILGLPRAELMGAMSLAALAANLTSVLLLARYKDGDANVRSVWLCSRNDAVGNVIVMIAAVGVFGTGTAWPDLAVAAVMAGIFLTSSLQILRQAWAEYRGGQAAATA | failed |
| MIEQELTYQDLRIPSSEIYEAMGYKDSIPDQMVIDETNTLLKRVIPLLRPRFAFFFMEGTLDIEKETLSVQSIHPPTVNPIQDTIPTRSPEQNTFSTQSKSTVFSVGKTIARQLRGSEAFVFFAATAGTEFEVFQHTLQQEEDMVKIYIADSLGSIIAEKTADCMEVALAEYIREKNWKHTNRYSPGYCGWHVSEQQKLFPLFPIAAPCGIRLTDSSLMVPIKSVSGVIGTGTNVRKLEYTCGLCTYENCYRKRKHRLEHHHHHH | failed |
| MSINIDSGQDSDQEHDDVMYPQVLPFVLIHAGCLAAIWSGVSWQAVAICVALYWLRMFGITAGYHRYFSHRAYATSRAFQFILAFLAQSSAQKSVLWWAAKHRHHHLHSDTAQDVHSPRHKGFVYSHLGWIFYRQHDATDLVKVSDLASYPELMWLHRLELLPAVVLAGLCFLIAGWSGLVVGFMWSTVVLYHATFCINSLAHVHGRRRYVTGDDSRNNWLLALLTMGEGWHNNHHAYQASARQGFYWYEVDLTYYALVALSWLGIVWDLKLPPRQVLRNEHRLGSRVVKQAAEQLAARFDPEHIALAIRTSIHETELSVRDALSLLQHRADLRLSSMPTREQLLAEAQRMFAKTISLDDIVDRAYELLHDSVGFLLATPALSANTNAKSGI | failed |
| MSLKKVVIIGGGAAGMSAASRVKRLKPEWDVKVFEATEWVSHAPCGIPYVVEGLSTPDKLMYYPPEVFIKKRGIDLHLNAEVIEVDTGYVRVRENGGEKSYEWDYLVFANGASPQVPAIEGVNLKGVFTADLPPDALAIREYMEKYKVENVVIIGGGYIGIEMAEAFAAQGKNVTMIVRGERVLRRSFDKEVTDILEEKLKKHVNLRLQEITMKIEGEERVEKVVTDAGEYKAELVILATGIKPNIELAKQLGVRIGETGAIWTNEKMQTSVENVYAAGDVAETRHVITGRRVWVPLAPAGNKMGYVAGSNIAGKELHFPGVLGTAVTKFMDVEIGKTGLTEMEALKEGYDVRTAFIKASTRPHYYPGGREIWLKGVVDNETNRLLGVQVVGSDILPRIDTAAAMLMAGFTTKDAFFTDLAYAPPFAPVWDPLIVLARVLKEGHHHHHH | not failed |
| MIIIELNKRQEHIIQIVKDHGPITGESIAAQLGLTRATLRPDLAILTMAGYLEARPRVGYFYTGKTGGQLLSEAVKKIKVQDYQSRPVVIDKNVSVYDAICTMFLEDVGTLFVVDQSTLLVGVVSRKDLLRASLGKQDLTSLPVNIIMTRMPNIAMCRREDSLYDIAMELIERQIDAMPVVKDTKQGLEVVGRITKTNITRAFVNLVNNE | failed |
| MDISSTEIWDAIRRNSFLLYYQPKVDAKTNELIGFEGLIRLKTATAILAPADFFEDIALLNATREMQDFVAETAIEQINQLGGRFSISINIPAHYVVSSNYMTFLYDYVKEHLKYPECLEIEIIERGEITELAVADKNLRKIKKLGVTVSMDDFGKGYSSLAYLRSLPIDIVKTDMSFIALLKTDRKQQIIIQAIVNLCHDLGGKVVTEGVEDIEQVKTLREMKVDYFQGYYFSRPLPMKEIKEKYSIV | failed |
| MNQQLLAKTFVELADNLVADFDLIDFLRLLTDRCVGMLDASAAGVLLADRNGELRVMAASDEQVRLLELFQLQNDEGPCLDCFRTGAPVTVPDLSAVTARWPRFAVQARRSGFGAVQALPMRLRDEVVGALNLFRATPGPFDPAATPLAQALADVATISLLQQRTAHRSTVLNEQLQTALN | not failed |
